The values that follow are results of earlier work, collected in PMC2715106.

Series [1] addresses core RNA polymerase (Escherichia coli) (UniProt P0A7Z4). The experiment in a line: SEC.
Series [2] has the same target. As to the kind of experiment: in vitro transcription.

Sequence of sigma32 (P0AGB3 whole entry): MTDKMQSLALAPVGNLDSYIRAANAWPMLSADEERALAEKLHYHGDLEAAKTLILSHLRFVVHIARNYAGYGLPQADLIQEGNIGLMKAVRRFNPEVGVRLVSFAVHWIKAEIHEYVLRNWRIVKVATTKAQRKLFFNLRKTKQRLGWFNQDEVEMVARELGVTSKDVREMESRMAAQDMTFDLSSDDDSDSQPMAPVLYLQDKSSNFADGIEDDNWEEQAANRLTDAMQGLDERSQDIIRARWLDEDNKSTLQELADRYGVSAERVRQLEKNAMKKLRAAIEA

Consider sigma32 (from UniProt P0AGB3), for which the results for the dissociation constant (Kd) in series [1] and in series [2] were 1.24 nM and 1 nM, respectively.
